Activity (% cells with deletion) data for 10 sequences are collected here from patent US20110207221.

Common to all, as to experiment: cell_activity
Data set [1] concerns ZFN 10342 (BAK) (synthetic). The settings on record: CHO-K1; BAK deletion, two ZFN pairs.
Data set [2] deals with ZFN 16245 (POU5F1) (synthetic). The settings on record: K562; two ZFN pairs co-transfected, deletion only with both.
The subject of data set [3] is ZFN 10317 (BAK del. A) (synthetic). The settings on record: CHO-K1; BAK deletion A, two ZFN pairs.
In data set [4] the test system is ZFN 10344 (BAK) (synthetic). The settings on record: CHO-K1; BAK deletion, two ZFN pairs.
Data set [5] relates to ZFN 16246 (POU5F1) (synthetic). The settings on record: K562; two ZFN pairs co-transfected.
Data set [6] has as its system ZFN 10311 (BAK) (synthetic). The settings on record: CHO-K1; BAK deletion, two ZFN pairs.
Data set [7] concerns ZFN 16248 (POU5F1) (synthetic). The settings on record: K562; two ZFN pairs co-transfected.
The test system of data set [8] is ZFN 11177 (BAK del. B) (synthetic). The settings on record: CHO-K1; BAK deletion B, two ZFN pairs.
Data set [9] relates to ZFN 16247 (POU5F1) (synthetic). The settings on record: K562; two ZFN pairs co-transfected.
In data set [10] the test system is ZFN 11183 (BAK) (synthetic). The settings on record: CHO-K1; BAK deletion, two ZFN pairs.

Sequence “GCGGCCAGGCCAAGGCAGACTTTCTGAC (double strand) [BAK site of 10342]” registered an activity (% cells with deletion) in [1] of 1.
With “AAGCTGGTCTGGTGGCTAGGTAGATCCT (double strand) [POU5F1 site of 16245]”, the activity (% cells with deletion) in data set [2] amounted to 4.
With “GCCAGGATTAGGAGGATGGGATTTGGCA (double strand) [BAK site of 10317]”, the activity (% cells with deletion) in data set [3] turned out to be 1.
On to “ATCAGGAAGAGGCTGGGTGTCACAGCGT (double strand) [BAK site of 10344]”, for which the activity (% cells with deletion) in data set [4] came to 1.
Take “GGGCTCTGGAAGGCCCACTTCAGGGCCT (double strand) [POU5F1 site of 16246]”: the activity (% cells with deletion) in [5] turned out to be 4.
In [6], “CAGCACGGGCCCAGGGTGGGGCAGAAAG (double strand) [BAK site of 10311]” displayed an activity (% cells with deletion) of 1.
The sequence “ATGAGTCAGTGAACAGGGAATGGGTGAA (double strand) [POU5F1 site of 16248]” yielded an activity (% cells with deletion) in data set [7] of 4.
For “AGGATTAGGAGGATGGGATTTGGCACTG (double strand) [BAK site of 11177]”, the activity (% cells with deletion) in data set [8] came out at 1.
For the sequence “ATGTAACAAAGGACTACTCTTCCCCCAG (double strand) [POU5F1 site of 16247]”, in data set [9], the activity (% cells with deletion) came out at 4.
In turn, “CACGGGCCCAGGGTGGGGCAGAAAGCCC (double strand) [BAK site of 11183]” registered an activity (% cells with deletion) in data set [10] of 1.
